Results as given in PMC4797271.

Columns and labels:
Assay in all cases: EMSA
[1] = molecular target: T1, ComA (Bacillus subtilis (W168?)) (UniProt P14204); conditions: EMSA: 10 mM HEPES pH 7.6, 2 mM MgCl2, 0.1 mM EDTA, 200 mM KCl, 5 mM DTT, 10% glycerol, 10 ng DNA in 15 ul, 20 min, room temperature
T1 sequence: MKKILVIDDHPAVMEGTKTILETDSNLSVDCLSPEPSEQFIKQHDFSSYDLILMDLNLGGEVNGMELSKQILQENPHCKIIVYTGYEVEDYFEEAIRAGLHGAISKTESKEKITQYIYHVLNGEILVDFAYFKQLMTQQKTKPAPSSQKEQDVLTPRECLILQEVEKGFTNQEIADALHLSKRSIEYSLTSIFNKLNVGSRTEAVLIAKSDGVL

[2] = molecular target: T2, ComA;RNA polymerase alpha subunit (Bacillus subtilis (W168?);Bacillus subtilis) (UniProt P14204+P20429); conditions: EMSA: 10 mM HEPES pH 7.6, 2 mM MgCl2, 0.1 mM EDTA, 200 mM KCl, 5 mM DTT, 10% glycerol; 10 ng DNA in 15 ul, 20 min, room temperature
T2 sequence 1: T1 sequence
T2 sequence 2: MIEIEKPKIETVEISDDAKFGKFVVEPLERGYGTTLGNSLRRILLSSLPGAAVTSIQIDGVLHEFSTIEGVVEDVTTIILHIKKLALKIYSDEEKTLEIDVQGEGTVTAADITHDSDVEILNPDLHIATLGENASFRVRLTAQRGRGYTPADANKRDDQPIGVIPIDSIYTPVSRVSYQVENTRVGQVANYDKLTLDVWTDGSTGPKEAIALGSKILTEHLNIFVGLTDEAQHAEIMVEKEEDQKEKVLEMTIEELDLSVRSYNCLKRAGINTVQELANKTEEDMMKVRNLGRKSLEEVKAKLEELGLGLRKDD

[3] = molecular target: ComA;sigma factor sigmaA (Bacillus subtilis (W168?);Bacillus subtilis) (UniProt P14204+P06224); conditions: EMSA: 10 mM HEPES pH 7.6, 2 mM MgCl2, 0.1 mM EDTA, 200 mM KCl, 5 mM DTT, 10% glycerol; 10 ng DNA in 15 ul, 20 min, room temperature
ComA;sigma factor sigmaA (Bacillus subtilis (W168?);Bacillus subtilis), sequence (P06224 whole entry, one chain of several): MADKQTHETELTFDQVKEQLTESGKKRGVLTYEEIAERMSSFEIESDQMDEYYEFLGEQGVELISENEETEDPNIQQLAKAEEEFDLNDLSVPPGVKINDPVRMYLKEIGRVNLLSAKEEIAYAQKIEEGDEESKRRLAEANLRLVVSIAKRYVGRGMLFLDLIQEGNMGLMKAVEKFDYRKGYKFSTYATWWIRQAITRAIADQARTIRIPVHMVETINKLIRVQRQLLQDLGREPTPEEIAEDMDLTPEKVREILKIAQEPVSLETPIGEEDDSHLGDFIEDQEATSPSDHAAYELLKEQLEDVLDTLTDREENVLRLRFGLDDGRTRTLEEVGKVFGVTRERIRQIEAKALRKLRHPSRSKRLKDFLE

Row | Substance | binding [1] | also measured
1 | NCyddk (no DR) | > 9.6 µM | 
2 | GTTACTGTCAAGTCGCAAAAGAATTGCTATGACCGAAAAAAAACCGCAAAGGAATAGATATAAGGTACCTTTTTGCAATTCATCTTTGTAAAATAAAGGTTATTCTGACATAATACAATTAATGTAAAAATTCGCACAATTTTATGTAAGGATGGGGGAATTTTC (double strand) [PrapI] | binds | 
3 | TTAATCCCCCCTTTTGAATTACCCGAGATATGTCATATTTTATCATATTTACAAGAAAAAGAAGAACGCAAAATAACCGCAATTGTCGAATTTCGGCTAACCGCAACAAAAAAGCACG (double strand) [PrapA] | binds | binding [2]: binds; binding [3]: binds
4 | AAAACCAAAAGGCCAATGTCGGCCTTTTGGTTTTTTTGCGGTCTTTGCGGTGGGATTTTGCAGAATGCCGCAATAGGATAGCGGAACATTTTCGGTTCTGAATGTCCCTCAATTTGCTATTATATTTTTGTG (double strand) [Ppel] | binds | 
5 | PDR ex5 (RE3 G5A) | > 9.6 µM | 
6 | PDR ex3 (RE3 G3A) | > 9.6 µM | 
7 | NCrapI (no DR) | > 9.6 µM | 
8 | PDR ex1 (RE3 T1C) |  | binding signal (fold reduced affinity) [1]: 2
9 | PDR ex11 (RE4 G5A) | > 9.6 µM | 
10 | TAGATTTCCTCCGACCTAATTTAATCCATTGTTTGTAAACATTTCATATCTAATTATATAACATAGACTCCTATTCTAACTACTTATTTTAAAGCAGTCTGGATTGTTTGGGTAATTCATAAAAAAATAAAAGAAAGAAGGAGGAATAGAGTTTTTCTTTTTTTTGTTTGCAATGTTACTGTCAAGTCGCAAAAGAATTGCTATGACCGAAAAAAAACCGCAAAGGAATAGATATAAGGTACCTTTTTGC (double strand) [Pyddk] | binds | 
11 | PIR-PDR core module fragment |  | Kd ([1]; apparent Kd, Hill coefficient 1.4): 2.4 µM
12 | PDR ex12 (RE4 G6A) | > 9.6 µM | 
